The target of series [1] is T1, MS2CP (MS2 coat protein) (bacteriophage MS2, UniProt P03612 2-130). Put plainly: EMSA; 6 mM Mg2+, 2 mM spermidine; EMSA, 1 uM RNA, 4 C 30 min, 12% native PAGE at 4 C; 1x from 5x buffer: U1A 20 mM HEPES pH 7.5, 80 mM KCl, 20 mM NaCl, 2 mM DTT; MS2CP 40 mM HEPES pH 7.5, 10 mM. The settings on record: protein: recombinant; tags: His; chain copies: 2; two hairpins. Background: A gel shift assay detects complexes by their altered migration in electrophoresis.

For series [2], the target named is T1, MS2CP (MS2 coat protein). Put plainly: EMSA; 6 mM Mg2+, 2 mM spermidine; affinity similar to native U; EMSA, 1 uM RNA, 4 C 30 min, 12% native PAGE at 4 C; 1x from 5x buffer: U1A 20 mM HEPES pH 7.5, 80 mM KCl, 20 mM NaCl, 2 mM DTT; MS2CP 40 mM HEPES pH 7.5, 10 mM. The conditions noted are these: protein: recombinant; tags: His; chain copies: 2; two hairpins.

T1 sequence (P03612 2-130): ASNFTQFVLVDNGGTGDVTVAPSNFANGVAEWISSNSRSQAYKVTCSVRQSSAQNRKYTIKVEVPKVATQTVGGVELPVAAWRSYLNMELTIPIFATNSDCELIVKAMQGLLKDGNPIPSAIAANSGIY

B1: 2x MS2 aptamer, native U (structured_RNA)
RNA: GGGAGCAGGUGAGGAUCACCCAUCUGCCACGAGCGAGGUGAGGAUCACCCAUCUCGCUCGUGUUCCC
In the case of B1, in the series with MS2CP (MS2 coat protein) [1], the binding result is on record as “binds”.

B2: 2x MS2 aptamer, m1Ψ (structured_RNA)
RNA: GGGAGCAGGUGAGGAUCACCCAUCUGCCACGAGCGAGGUGAGGAUCACCCAUCUCGCUCGUGUUCCC
modifications: all U replaced by N1-methylpseudouridine
Regarding B2, the binding result in the series with MS2CP (MS2 coat protein) [2] is “binds”.

The values above are taken from publication PMC7102939, “N 1-Methylpseudouridine substitution enhances the performance of synthetic mRNA switches in cells”.
